Assay results from patent US20240207401A1 (IMPERIAL COLLEGE INNOVATIONS, published 2024).
Where two headings read alike, the source gives them in different places.

Legend:
[1] = molecular target: T1, SARS-CoV-2 spike trimer (COVID19 S ectodomain, residues 1-1208) (SARS-CoV-2, UniProt P0DTC2 14-1208)
[2] = molecular target: SARS-CoV-2 S protein, membrane form (SARS-CoV-2, UniProt P0DTC2 14-1273); experiment: cell-based or functional assay
[3] = molecular target: T2, SARS-CoV spike protein, full length on virus (SARS-CoV, UniProt P59594 14-1255); experiment: cell-based or functional assay
[4] = molecular target: T3, MERS-CoV spike protein, full length on virus or transfected cells (MERS-CoV, UniProt K9N5Q8 18-1353); experiment: cell-based or functional assay
[5] = molecular target: T4, SARS-CoV spike trimer (S ectodomain protein) (SARS-CoV, UniProt P59594 14-1195); experiment: SARS-CoV spike
T4 construct: also called SARS-CoV S ectodomain; SARS-CoV spike protein

[6] = molecular target: T2, SARS-CoV spike protein, full length on …; experiment: cell-based or functional assay; remark: listed apart in the source
[7] = molecular target: T3, MERS-CoV spike protein, full length on …; experiment: cell-based or functional assay; remark: listed apart in the source
[8] = molecular target: T5, MERS-CoV spike trimer (S ectodomain protein) (MERS-CoV, UniProt K9N5Q8 18-1296)
[9] = molecular target: T1, SARS-CoV-2 spike trimer (COVID19 S …); remark: listed apart in the source
[10] = molecular target: T4, SARS-CoV spike trimer (S ectodomain …)
[11] = molecular target: T5, MERS-CoV spike trimer (S ectodomain …); experiment: MERS-CoV spike
[12] = molecular target: T1, SARS-CoV-2 spike trimer (COVID19 S …); remark: listed apart in the source
[13] = molecular target: T4, SARS-CoV spike trimer (S ectodomain …); remark: listed apart in the source
[14] = molecular target: T1, SARS-CoV-2 spike trimer (COVID19 S …); experiment: ELISA on spike trimer, IgG titrated

B1: IC001 (antibody, V domains shown)
VH: QVQLVQSGAEVKKPGASVKVSCKASGYTFTSYAMHWVRQAPGQRLEWMGWINAGNGNTKYSQKFQGRVTITRDTSASTAYMELSSLRSEDTAVYYCARDRHMVVPAAVFDYWGQGTLVTVSS
VL: AIQLTQSPSTLSASVGDRVTITCRASQSISSWLAWYQQKPGKAPKLLIYKASSLESGVPSRFSGSGSGTEFTLTISSLQPDDFATYYCQQYGTFGQGTKWISN
notes: also called CoV-bnMAB; mAb IC001
- EC50 [1]: 586 nM
- fold weaker binding affinity than ACE2 [1]: ~7 fold
- IC50, neutralisation [2]: 2.2 µg/mL
- IC50, neutralisation [3]: 2.8 µg/mL
- IC50, neutralisation [4]: 3 µg/mL
- EC50 [5]: 520 nM
- neutralization of SARS-CoV pseudovirus (IC50) [6]: 1.8 µg/mL
- neutralization of MERS-CoV pseudovirus (IC50) [7]: 2.9 µg/mL
- Kd [8]: 1200 nM
- Kd [9]: 700 nM
- Kd [10]: 700 nM
- EC50 [11]: 857 nM
- EC50 [12]: 520 nM
- EC50 [13]: 586 nM

B2: IC008 (antibody, V domains shown)
VH: LVQLQESGPRLVTPSETLSLTCTVSGGSISSSRHYWGWIRQPPGMGLEWIGSIDYSGGTYCNPSLKSRVTISEDTSKNQFSLKVNSVTAADTAVYYCARQVGHSGRGHNWFDPWGQGTLVTVSS
VL: DIQMTQSPSSLSASVGDRVTITCRASQSIYNYLNWYQQKPGKAPKFLIYAASTLQTGVPSRFSGSGSGTDFTLTISSLQPEDFATYYCQQSYSSSVTFGQGTRLEIK
notes: also called CoV-bnMAB; mAb IC008
- IC50, neutralisation [2]: 4.5 µg/mL
- IC50, neutralisation [3]: 3 µg/mL
- IC50, neutralisation [4]: 2.9 µg/mL
- EC50 (read off the curve) [14]: ~2 nM
